Target: T1, recombinant PIF3-GST (Arabidopsis thaliana, UniProt O80536 1-524)
T1 sequence (looked up): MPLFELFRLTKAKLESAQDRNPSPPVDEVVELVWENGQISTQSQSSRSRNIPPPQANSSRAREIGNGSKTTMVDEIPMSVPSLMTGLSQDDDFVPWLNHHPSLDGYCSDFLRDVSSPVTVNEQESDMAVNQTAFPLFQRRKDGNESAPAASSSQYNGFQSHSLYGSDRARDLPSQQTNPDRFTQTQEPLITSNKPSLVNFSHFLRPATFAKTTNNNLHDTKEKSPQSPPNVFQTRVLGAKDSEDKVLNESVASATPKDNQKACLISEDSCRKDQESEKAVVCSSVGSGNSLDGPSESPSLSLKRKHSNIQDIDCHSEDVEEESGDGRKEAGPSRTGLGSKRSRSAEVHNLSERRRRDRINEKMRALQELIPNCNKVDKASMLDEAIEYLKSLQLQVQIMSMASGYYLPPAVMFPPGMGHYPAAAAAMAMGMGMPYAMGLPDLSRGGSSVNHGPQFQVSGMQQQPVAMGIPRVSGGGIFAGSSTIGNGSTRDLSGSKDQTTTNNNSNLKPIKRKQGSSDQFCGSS
Test: pull-down

binding result: binds
B1: His-tagged kinase domain of FER (518-816 amino acids, FER-KD) (domain or fragment)
chain: not shown

From publication doi:10.1101/2023.02.02.526371 (bioRxiv, 2023)
